Source: patent US20150044214A1 (Hoffmann-La Roche, published 2015)

Target: T1, human VEGF-A (human, UniProt P15692-4 27-191)
T1 construct: ELISA methods name 'full-length VEGF165-His protein (R&D Systems)'; Biacore methods name rhVEGF (R&D Systems Cat. No. 293-VE); also called VEGF165; VEGF165-His
Assay: ELISA and Biacore (SPR), incl. simultaneous binding (bridging ELISA, sandwich SPR)

T1 sequence (P15692 other isoform, or with tags, fused parts or gaps limits assumed): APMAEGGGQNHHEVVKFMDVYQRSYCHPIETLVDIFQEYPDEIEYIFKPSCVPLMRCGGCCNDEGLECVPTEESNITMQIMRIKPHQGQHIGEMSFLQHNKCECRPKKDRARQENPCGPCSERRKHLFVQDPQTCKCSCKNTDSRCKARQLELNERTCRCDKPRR

- binding result: binds
B1: bispecific, tetravalent antigen binding protein recognizing Ang-2 and VEGF-A (bispecific antibody, human IgG1, kappa)
heavy 1: not shown
light 1: QPGLTQPPSVSVAPGQTARITCGGNNIGSKSVHWYQQKPGQAPVLVVYDDSDRPSGIPERFSGSNSGNTATLTISRVEAGDEADYYCQVWDSSSDHYVFGTGTKVTVLRTVAAPSVFIFPPSDEQLKSGTASVVCLLNNFYPREAKVQWKVDNALQSGNSQESVTEQDSKDSTYSLSSTLTLSKADYEKHKVYACEVTHQGLSSPVTKSFNRGEC
heavy 2: not shown
light 2: DIQMTQSPSSLSASVGDRVTITCSASQDISNYLNWYQQKPGKAPKVLIYFTSSLHSGVPSRFSGSGSGTDFTLTISSLQPEDFATYYCQQYSTVPWTFGQGTKVEIKSSASTKGPSVFPLAPSSKSTSGGTAALGCLVKDYFPEPVTVSWNSGALTSGVHTFPAVLQSSGLYSLSSVVTVPSSSLGTQTYICNVNHKPSNTKVDKKVEPKSC
notes: Expressed transiently in HEK293F cells; also called bispecific tetravalent <VEGF-Ang-2> antibody; <Ang-2, VEGF> bispecific tetravalent antibody
